For assay [1], the target named is T1, human CGRP receptor (human CRLR / human RAMP1 heterodimer) (human, UniProt Q16602 23-461; O60894 27-148).
T1 construct: Full-length receptor: endogenous on SK-N-MC (HTB-10) cells in the cAMP assay; also called hCGRP receptor on SK-N-MC (HTB-10) cells; Human CGRP Receptor/AMID detergent-solubilized cell lysate
Nature of the assay: yeast-displayed Fab, FACS, detergent-solubilized lysate of human CGRP receptor-expressing cells vs blank cells.

For assay [2], the target named is T2, cynomolgus monkey CGRP receptor (cynomolgus monkey, UniProt A0A2K5VQ71 34-472).
T2 construct: whole, on cells; Presented as detergent-solubilized lysate of HEK cells expressing the cynomolgus receptor; also called Cyno CGRP Receptor; Cynomolgus Monkey CGRP Receptor/HEK detergent-solubilized cell lysate
The assay can be described thus: yeast-displayed Fab, FACS, detergent-solubilized lysate of cynomolgus CGRP receptor/HEK cells vs blank cells.

The target in assay [3] is T3, human PAC1 receptor extracellular domain (ECD) (human, UniProt P41586 24-153).
T3 construct: also called PAC1 receptor ECD; PAC1 ECD
T3 sequence: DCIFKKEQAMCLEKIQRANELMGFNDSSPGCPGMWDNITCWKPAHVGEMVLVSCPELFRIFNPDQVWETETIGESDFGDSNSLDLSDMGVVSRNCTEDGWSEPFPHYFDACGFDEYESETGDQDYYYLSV
Nature of the assay: yeast-displayed Fab, FACS, 10 nM PAC1 receptor ECD.

For assay [4], the target named is T4, human CGRP receptor extracellular domain (ECD) (human, UniProt Q16602 23-138; O60894 27-117).
T4 construct: also called CGRP receptor ECD; human CGRP receptor ECD
Nature of the assay: yeast-displayed Fab, FACS, 1 nM human CGRP receptor ECD.

Assay [5] concerns the target T4, human CGRP receptor extracellular …. The assay can be described thus: yeast-displayed Fab, FACS, 10 nM human CGRP receptor ECD.
Assay [6] addresses T5, soluble CGRP receptor (extracellular domains of human CRLR and human RAMP1) (human, UniProt Q16602 23-133; O60894 26-117).
T5 construct: the tag and the thrombin site are not described; also called soluble human CGRP receptor; CGRP receptor ECD
The assay can be described thus: SPR (Biacore T200), antibody captured by goat anti-human Fc, soluble CGRP receptor as analyte, 1:1 model. A general note: SPR reads the build-up and loss of mass on a sensor chip optically.

Residue numbers refer to the chain shown, from its start. Names and notes keep the numbering of the source.

From US20220363770A1 (Amgen, published 2022) come the findings set out here.

The term Kd denotes the equilibrium constant for the complex coming apart. The term koff denotes a measure of how fast the partners let go of each other. What is called kon is a measure of how fast the partners come together.

T1 sequence (Q16602 23-461 limits assumed, chain 1 of 2): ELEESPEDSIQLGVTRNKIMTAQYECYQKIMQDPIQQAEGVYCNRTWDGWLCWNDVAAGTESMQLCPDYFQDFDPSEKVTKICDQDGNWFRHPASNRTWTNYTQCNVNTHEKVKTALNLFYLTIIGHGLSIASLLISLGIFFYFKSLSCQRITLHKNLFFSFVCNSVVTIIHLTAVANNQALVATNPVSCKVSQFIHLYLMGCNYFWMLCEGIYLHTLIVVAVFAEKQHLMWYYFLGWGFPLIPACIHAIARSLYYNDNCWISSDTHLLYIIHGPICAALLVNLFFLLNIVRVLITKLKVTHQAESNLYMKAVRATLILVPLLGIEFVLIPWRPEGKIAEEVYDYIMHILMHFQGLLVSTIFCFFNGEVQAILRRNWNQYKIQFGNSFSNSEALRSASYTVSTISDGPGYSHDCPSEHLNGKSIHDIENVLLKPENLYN
T1 sequence (O60894 27-148 limits assumed, chain 2 of 2): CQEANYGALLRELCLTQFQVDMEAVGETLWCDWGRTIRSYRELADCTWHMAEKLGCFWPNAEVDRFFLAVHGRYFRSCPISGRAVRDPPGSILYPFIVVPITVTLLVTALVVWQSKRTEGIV
T2 sequence (A0A2K5VQ71 entry or part of it): as the sequence (Q16602 23-461 limits assumed, chain 1 of 2) above, with D55N, L431V counted along it
T4 sequence (Q16602 23-138 limits assumed, chain 1 of 2): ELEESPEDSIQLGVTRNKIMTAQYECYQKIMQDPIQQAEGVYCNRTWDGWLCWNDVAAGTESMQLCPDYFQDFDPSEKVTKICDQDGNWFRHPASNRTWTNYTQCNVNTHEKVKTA
T4 sequence (O60894 27-117 limits assumed, chain 2 of 2): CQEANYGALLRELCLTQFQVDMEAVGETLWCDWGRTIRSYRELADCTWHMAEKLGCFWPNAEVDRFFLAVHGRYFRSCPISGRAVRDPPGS
T5 sequence (Q16602 23-133, chain 1 of 2): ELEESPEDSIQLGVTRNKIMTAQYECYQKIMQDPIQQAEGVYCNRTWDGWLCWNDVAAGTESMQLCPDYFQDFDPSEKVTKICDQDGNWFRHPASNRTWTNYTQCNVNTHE
T5 sequence (O60894 26-117, chain 2 of 2): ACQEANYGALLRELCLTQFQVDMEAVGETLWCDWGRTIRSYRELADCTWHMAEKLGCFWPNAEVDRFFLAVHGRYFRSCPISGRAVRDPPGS

B1: anti-CGRP receptor variant 09, yeast-displayed Fab (Fab, V domains shown)
VH: QVQLVESGGGVVQPGRSLRLSCAASGFTFSSFGMHWVRQAPGKGLEWVAVISFAGEIDYYVDSVKGRFTISRDNSKNTLFLQMNSLRAEDTAVYYCARDRLNYYESSGYYHYKYYGMAVWGQGTTVTVSS
VL: QSVLTQPPSVSAAPGQKVTISCSGSSSNIGNNYVSWYQQLPGTAPKLLIYDNNKRPSGIPDRFSGSKSGTSATLGITGLQTGDEADYYCGTWDSRLSAVVFGGGTKLTVLG
notes: also called Variant Ab ID 09
Regarding B1, in assay [1], the “Human CGRP Receptor/Blank Cells Specific Binding” value worked out at 10.4 ratio and the “Mutant vs. 4E4.2 Parent Specific Binding Ratio” value was found to be 1.3 fold. For the same molecule, in assay [2], the “Cyno CGRP Receptor/Blank Cells Specific Binding” value worked out at 2.3 ratio and the “Mutant vs. 4E4.2 Parent Specific Binding Ratio” value was 1.2 fold. Also, in assay [3], the “Mutant vs. 4E4.2 Parent B/D Ratio” value was found to be 1.6 fold and the “Normalized Binding Signal/Display Signal (B/D)” value is 0.17 ratio. In assay [4], the “Mutant vs. 4E4.2 Parent B/D Ratio” value stood at 3 fold and the “Normalized Binding Signal/Display Signal (B/D)” value came out at 0.38 ratio. Also, in assay [5], the “Mutant vs. 4E4.2 Parent B/D Ratio” value is 10.6 fold and the “Normalized Binding Signal/Display Signal (B/D)” value was determined as 1.62 ratio.

B2: wild-type 4E4 anti-CGRP receptor monoclonal antibody (antibody, human IgG2, lambda, V domains shown)
VH: B1 VH with A54D, E56S, D58K, Y60S, E105D
VL: B1 VL with A72T
notes: also called WT; 4E4 Ab
On to B2, for which, in assay [6], binding was put at a Kd of 28 nM, the koff amounted to 0.00054 s⁻¹ and the kon worked out at 20000 M⁻¹ s⁻¹.

B3: anti-CGRP receptor variant 11, yeast-displayed Fab (Fab, V domains shown)
VH: B1 VH with T28W, S30D, S31T, I57D, D58T, Y59H, S107Y, H111G, K113H
VL: QSVLTQPPSVSAAPGQKVTISCSGSRSNIGRYSVSWYQQLPGTAPKLLIYENMFRPRGIPDRFSGSKSGTSATLGITGLQTGDEADYYCGTWDYRMQAVVFGGGTKLTVLG
notes: also called Variant Ab ID 11
With B3, in assay [1], the “Human CGRP Receptor/Blank Cells Specific Binding” value was 9.5 ratio and the “Mutant vs. 4E4.2 Parent Specific Binding Ratio” value worked out at 1.2 fold. In addition, in assay [2], the “Cyno CGRP Receptor/Blank Cells Specific Binding” value amounted to 5.3 ratio and the “Mutant vs. 4E4.2 Parent Specific Binding Ratio” value worked out at 2.8 fold. In assay [3], the “Mutant vs. 4E4.2 Parent B/D Ratio” value was 1.5 fold and the “Normalized Binding Signal/Display Signal (B/D)” value worked out at 0.16 ratio. In addition, in assay [4], the “Mutant vs. 4E4.2 Parent B/D Ratio” value is 11 fold and the “Normalized Binding Signal/Display Signal (B/D)” value was determined as 1.36 ratio. In assay [5], the “Mutant vs. 4E4.2 Parent B/D Ratio” value is 22 fold and the “Normalized Binding Signal/Display Signal (B/D)” value is 3.38 ratio.

B4: 4E4 heavy chain D54A single-point alanine variant antibody (antibody, V domains shown)
VH: B1 VH with E56S, D58K, Y60S, E105D
VL: B1 VL with A72T
notes: Recombinantly expressed as a monoclonal antibody
In the case of B4, in assay [6], the affinity, expressed as Kd, was 180 nM; the koff amounted to 0.0026 s⁻¹; the kon is 15000 M⁻¹ s⁻¹.

B5: anti-CGRP receptor variant 13, yeast-displayed Fab (Fab, V domains shown)
VH: B1 VH with A54D, E56S, D58K, Y60S
VL: B1 VL with S26R, N31R, N32R, Y33T
notes: also called Variant Ab ID 13
In the case of B5, in assay [1], the “Human CGRP Receptor/Blank Cells Specific Binding” value was found to be 14.6 ratio and the “Mutant vs. 4E4.2 Parent Specific Binding Ratio” value amounted to 1.8 fold. Also, in assay [2], the “Cyno CGRP Receptor/Blank Cells Specific Binding” value worked out at 4.8 ratio and the “Mutant vs. 4E4.2 Parent Specific Binding Ratio” value came out at 2.5 fold. In addition, in assay [3], the “Mutant vs. 4E4.2 Parent B/D Ratio” value was found to be 1 fold and the “Normalized Binding Signal/Display Signal (B/D)” value is 0.11 ratio. Moreover, in assay [4], the “Mutant vs. 4E4.2 Parent B/D Ratio” value worked out at 2.9 fold and the “Normalized Binding Signal/Display Signal (B/D)” value worked out at 0.35 ratio. Also, in assay [5], the “Mutant vs. 4E4.2 Parent B/D Ratio” value turned out to be 9.8 fold and the “Normalized Binding Signal/Display Signal (B/D)” value was found to be 1.51 ratio.

B6: anti-CGRP receptor variant 10, yeast-displayed Fab (Fab, V domains shown)
VH: B1 VH with T28F, S30G, F32Y, D58E, Y59H
VL: B1 VL
notes: also called Variant Ab ID 10
For B6, in assay [1], the “Human CGRP Receptor/Blank Cells Specific Binding” value amounted to 20.7 ratio and the “Mutant vs. 4E4.2 Parent Specific Binding Ratio” value was found to be 2.6 fold. Also, in assay [2], the “Cyno CGRP Receptor/Blank Cells Specific Binding” value turned out to be 3 ratio and the “Mutant vs. 4E4.2 Parent Specific Binding Ratio” value was 1.6 fold. In assay [3], the “Mutant vs. 4E4.2 Parent B/D Ratio” value is 0.9 fold and the “Normalized Binding Signal/Display Signal (B/D)” value is 0.1 ratio. In assay [4], the “Mutant vs. 4E4.2 Parent B/D Ratio” value amounted to 3.3 fold and the “Normalized Binding Signal/Display Signal (B/D)” value turned out to be 0.4 ratio. Also, in assay [5], the “Mutant vs. 4E4.2 Parent B/D Ratio” value is 13.3 fold and the “Normalized Binding Signal/Display Signal (B/D)” value was 2.04 ratio.

B7: anti-CGRP receptor variant 14, yeast-displayed Fab (Fab, V domains shown)
VH: B1 VH with A54D, E56S, D58K, Y60S
VL: B1 VL with R95W, L96H, S97R, A98V, V100T
notes: also called Variant Ab ID 14
On to B7, for which, in assay [1], the “Human CGRP Receptor/Blank Cells Specific Binding” value was determined as 13.5 ratio and the “Mutant vs. 4E4.2 Parent Specific Binding Ratio” value was 1.7 fold. Besides, in assay [2], the “Cyno CGRP Receptor/Blank Cells Specific Binding” value was 2.2 ratio and the “Mutant vs. 4E4.2 Parent Specific Binding Ratio” value worked out at 1.1 fold. In assay [3], the “Mutant vs. 4E4.2 Parent B/D Ratio” value was determined as 0.7 fold and the “Normalized Binding Signal/Display Signal (B/D)” value turned out to be 0.08 ratio. In addition, in assay [4], the “Mutant vs. 4E4.2 Parent B/D Ratio” value was found to be 1 fold and the “Normalized Binding Signal/Display Signal (B/D)” value worked out at 0.12 ratio. Besides, in assay [5], the “Mutant vs. 4E4.2 Parent B/D Ratio” value was 2.2 fold and the “Normalized Binding Signal/Display Signal (B/D)” value came out at 0.33 ratio.

B8: 4E4 heavy chain K113A single-point alanine variant antibody (antibody, V domains shown)
VH: B1 VH with A54D, E56S, D58K, Y60S, E105D, K113A
VL: B1 VL with A72T
notes: as for B4
Regarding B8, in assay [6], the affinity, expressed as Kd, was 33 nM; the koff turned out to be 0.0006 s⁻¹; the kon was 18000 M⁻¹ s⁻¹.

B9: 4E4 light chain R95A single-point alanine variant antibody (antibody, V domains shown)
VH: B1 VH with A54D, E56S, D58K, Y60S, E105D
VL: B1 VL with A72T, R95A
notes: as for B4
In assay [6], B9 showed a Kd of 43 nM, a koff of 0.00077 s⁻¹ and a kon of 18000 M⁻¹ s⁻¹.

B10: 4E4 light chain K67A single-point alanine variant antibody (antibody, V domains shown)
VH: B1 VH with A54D, E56S, D58K, Y60S, E105D
VL: B1 VL with K67A, A72T
notes: as for B4
In assay [6], B10 had a Kd of 29 nM, a koff of 0.00046 s⁻¹ and a kon of 16000 M⁻¹ s⁻¹.

B11: 4E4 light chain Y33A single-point alanine variant antibody (antibody, V domains shown)
VH: B1 VH with A54D, E56S, D58K, Y60S, E105D
VL: B1 VL with Y33A, A72T
notes: Recombinantly expressed as a monoclonal antibody; also called L-Y33A
In assay [6], B11 returned a Kd of 11 nM, a koff of 0.00027 s⁻¹ and an on-rate constant (kon) of 24000 M⁻¹ s⁻¹.

B12: anti-CGRP receptor variant 15, yeast-displayed Fab (Fab, V domains shown)
VH: B1 VH with A54D, E56S, D58K, Y60S
VL: B1 VL with S94W, R95W, L96R, S97K, V100I
notes: also called Variant Ab ID 15
In the case of B12, in assay [1], the “Human CGRP Receptor/Blank Cells Specific Binding” value was determined as 11.9 ratio and the “Mutant vs. 4E4.2 Parent Specific Binding Ratio” value came to 1.5 fold. Besides, in assay [2], the “Cyno CGRP Receptor/Blank Cells Specific Binding” value worked out at 4.2 ratio and the “Mutant vs. 4E4.2 Parent Specific Binding Ratio” value was determined as 2.2 fold. Further, in assay [3], the “Mutant vs. 4E4.2 Parent B/D Ratio” value was 0.9 fold and the “Normalized Binding Signal/Display Signal (B/D)” value came to 0.1 ratio. In assay [4], the “Mutant vs. 4E4.2 Parent B/D Ratio” value was determined as 1.3 fold and the “Normalized Binding Signal/Display Signal (B/D)” value worked out at 0.16 ratio. Also, in assay [5], the “Mutant vs. 4E4.2 Parent B/D Ratio” value stood at 2.7 fold and the “Normalized Binding Signal/Display Signal (B/D)” value came to 0.42 ratio.
